Experimental data published in patent US20230272097A1 (PETMEDIX, published 2023).
Substitutions are numbered along the chain they refer to.

T1: canine OX40L, full length membrane form, expressed on the cell surface (HEK293 or MEF cells stably … (canine (dog, beagle)))
T1 construct: The same protein is used on HEK293 and on MEF cells; also called HEK-OX40L; OX40L expressing HEK293 cells
T1 chain: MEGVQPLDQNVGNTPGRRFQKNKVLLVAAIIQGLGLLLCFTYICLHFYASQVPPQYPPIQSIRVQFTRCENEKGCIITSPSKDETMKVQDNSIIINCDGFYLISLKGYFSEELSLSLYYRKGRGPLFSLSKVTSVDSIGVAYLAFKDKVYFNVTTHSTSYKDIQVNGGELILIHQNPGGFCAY

B1: PMX016 (antibody, V domains shown)
VH: EVQLVESGGDLVKPGGSLRLSCVASGFTFSNYHMNWVRQAPGKGLQWVAYITSDGIVSSYADVVKGRFTISRDNAKNTLFLQMNSLRAEDTAVYYCASGLFLVVGGGTFWGQGTLVTVSS
VL: SYVLTQLPSKNVTLKQPAHITCGGDNIGSKSVHWYQQKLGQAPVLIIYSDSSRPTGIPERFSGANSGNTATLTISGALAEDEADYYCQVWDSSAKASVFGGGTHLTVL
notes: Canine variable regions
B2: PMX017 (antibody, V domains shown)
V domain 1: EVQLVESGGDLVKPGGSLRLSCVASGFTFSSYHMSWVRQAPGKGLQWVAYIASGGTVTTYADAVRGRFTISRDNAKNMLYLQMNSLRAEDSAVYYCTRWKGGTFGYGMDYWGHGTSLFVSS
V domain 2: B1 VL with S49Y, S51N, S52N, T55A
notes: Canine variable regions
B3: PMX013 (antibody, V domains shown)
VH: ELTLQESGPGLVKPSQTLSLTCVVSGGSVTSSHYWNWIRQRPGRGLEWMGSWTGGTNYNPAFQGRISVTSDTAKNQFSLQLSSLTTEDTAVYYCARGGGYSGTWKDYYVMDYWGHGTSVIVSS
VL: B1 VL with K15N, I27L, S49F, S51T
notes: Canine variable regions
B4: PMX018 (antibody, V domains shown)
VH: B1 VH with S53N, V63A, F80Y, A88V
VL: B1 VL with Q37H, S49Y
notes: Canine variable regions
B5: PMX019 (antibody, V domains shown)
VH: EVQLVESGGDLVKPGGSLRLSCVASGFTFSSNYMSWIRQAPGKGLQWVSQISGDGIYTNYADAMKGRFTISRDNAKNTLYLQMNSLRDEDTALYYCATGIYPNAFGYWGQGTLVTVSS
VL: SYVLTQLSSKNVTLKQPAHITCGGDNIGSKSVHWYQQKLGQAPVLIIYYDSSRPTGIPERFSGANSGNTATLTISGALAEDEADYYCQVWDSSANVFGGGTHLTVL
notes: Canine variable regions; also called PMX19
B6: PMX020 (antibody, V domains shown)
VH: EVQLVESGGDLVKPGGSLRISCVASGFTFSSYHMNWVRQAPGKGLQWVAHISSGGTFTSYADAVKGRFTISRDNAKNTLYLQMISLRAEDTAVYYCASGLFLVVGGGNYWGRGTLVTVSS
VL: B5 VL with S8P, Y49S, N95S
notes: Canine variable regions
B7: PMX 015 (antibody, V domains shown)
V domain 1: EVQLVESGGDLVKPGGSLRISCVASGFTFSYYHMSWVRQAPGKGLQWVAYINSGGFSTNYADAVKGRCSISRDNGKNTLYLQMNSLRPEDTGVYYCASESRWGDSYSGMTYWGHGTSLFVSS
V domain 2: B1 VL with S49Y, S51N, N65K
notes: anti-canine OX40L candidate
B8: PMX 024 (antibody, V domains shown)
VH: B5 VH with Q3L, V5M, S35Y, I56S, Y57F, M64V, L93V, Y94F, T98S
VL: B5 VL with L7P, S8P, W90R
notes: anti-canine OX40L candidate
B9: PMX014 formulated in canine IgGB Def2 backbone (antibody)
heavy: EVQLVESGGDLVKPGGSLRLSCVASGFTFSNFHMSWVRQAPGKGLQWVAYINSGGFNINYEDAVRGRFTISRDNAKNTLYLQMNSLRAEDTAIYYCARDWDTHLDTNWFYYWGQGTLVTVSSASTTAPSVFPLAPSCGSTSGSTVALACLVSGYFPEPVTVSWNSGSLTSGVHTFPSVLQSSGLYSLSSMVTVPSSRWPSETFTCNVAHPASKTKVDKPVPKRENGRVPRPPDCPKCPAPESLGGPSVFIFPPKPKDTLLIARTPEVTCVVVDLGREDPEVQISWFVDGKQMQTAKTQPREEQFNGTYRVVSVLPIGHQDWLKGKQFTCKVNHIGLPSPIERTISKARGQAHQPSVYVLPPSREELSKNTVSLTCLIKDFFPPDIDVEWQSNGQQEPESKYRTTPPQLDEDGSYFLYSKLSVDKSRWQRGDTFICAVMHEALHNHYTQKSLSHSPGK
light: B1 VL with P17S, G23R, S49Y, S92I
notes: also called PMX014 Def2; not shown: light chain constant region (human kappa, or canine kappa or lambda)
B10: PMX014 formulated in canine IgGB Def7 backbone (antibody)
heavy: B9 heavy with S242A, L243A, G275D, R276P, H333N, I334K, G335A, P337G
light: B1 VL with P17S, G23R, S49Y, S92I
notes: also called PMX014 Def7; not shown: light chain constant region (human kappa, or canine kappa or lambda)
B11: PMX020 formulated in canine IgGB Def2 backbone (antibody)
heavy: EVQLVESGGDLVKPGGSLRISCVASGFTFSSYHMNWVRQAPGKGLQWVAHISSGGTFTSYADAVKGRFTISRDNAKNTLYLQMISLRAEDTAVYYCASGLFLVVGGGNYWGRGTLVTVSSASTTAPSVFPLAPSCGSTSGSTVALACLVSGYFPEPVTVSWNSGSLTSGVHTFPSVLQSSGLYSLSSMVTVPSSRWPSETFTCNVAHPASKTKVDKPVPKRENGRVPRPPDCPKCPAPESLGGPSVFIFPPKPKDTLLIARTPEVTCVVVDLGREDPEVQISWFVDGKQMQTAKTQPREEQFNGTYRVVSVLPIGHQDWLKGKQFTCKVNHIGLPSPIERTISKARGQAHQPSVYVLPPSREELSKNTVSLTCLIKDFFPPDIDVEWQSNGQQEPESKYRTTPPQLDEDGSYFLYSKLSVDKSRWQRGDTFICAVMHEALHNHYTQKSLSHSPGK
light: B5 VL with S8P, Y49S, N95S
notes: also called PMX020 Def2; not shown: light chain constant region (human kappa, or canine kappa or lambda)
B12: PMX020 formulated in canine IgGB Def7 backbone (antibody)
heavy: B11 heavy with S240A, L241A, G273D, R274P, H331N, I332K, G333A, P335G
light: B5 VL with S8P, Y49S, N95S
notes: also called PMX020 Def7; not shown: light chain constant region (human kappa, or canine kappa or lambda)

Molecular target: T1, canine OX40L, full length membrane …
Assay: flow cytometry titration on HEK cells expressing OX40L; Kd (EC50) from GeoMean vs concentration, Prism four parameter fit
Procedure: (§1) FIG. 10. Affinity determination for antibodies that bind OX40L on HEK cells expressing OX40L. Graphs are generated by plotting GeoMean arbitrary units (AU) against Log₁₀ [concentration]. Kd (EC₅₀) was calculated using Prism.
(§2) Specific binding to cells expressing OX40L is confirmed by purifying mAb from the CHO supernatant using protein A resin (MabSelect, Cytiva). In brief, MabSelect resin is washed in PBS and diluted to have a 10% slurry. An appropriate volume of the 10% slurry is added to the supernatant and incubated 5-10′ at RT before being loaded into a filter column. After 3 washes with PBS the antibodies are eluted using IgG elute buffer (Pierce) directly into neutralisation buffer (10 mM TRIS pH8.0), 8:1 IgG elute: neutralisation buffer ratio. Antibody solutions are quantified measuring absorbance at 280 nm, using a Nanodrop One (Thermo Fisher). Serial 1:3 dilutions of purified antibodies ranging from 6.6 μM to 66 pM are prepared in FACS buffer and are used to stain HEK293 or MEF cells (or any other commonly used cell lines) expressing canine OX40L.

Kd [nM] | Binder
37.4 | B1
30 | B2
165 | B3
23.6 | B4
4.49 | B5
2.8 | B6

Molecular target: T1, canine OX40L, full length membrane …
Assay: flow cytometry, single dose, OX40L expressing HEK293 cells against the parental line, fluorescently labelled secondary antibody
Procedure: CHO cells supernatants containing candidate antibodies are diluted to 1, 5 or 10 μg/ml in FACS buffer (PBS containing 3% FBS) and screened for their ability to bind canine OX40L proteins expressed on cell surface. In brief, HEK293 or MEF cells (or any other commonly used cell lines) expressing canine OX40L at the cell surface are incubated with 100 μl of FACS buffer containing the candidate antibody for 30′ on ice. As a control the parental cell line (HEK293 or MEF cells not expressing OX40L) is also stained with the same antibody solution. After staining, cells are washed with 150 μl FACS buffer followed by centrifugation at 300 g for 3 min. Supernatant is removed, and the cell pellet is resuspended in FACS buffer containing a 1:1000 dilution of a fluorescently labelled secondary antibody recognising the human or canine Fc region of the test antibody for 30 min in the dark, followed by washing with 150 μl FACS buffer and centrifugation at 300 g for 3 mins. Cells are resuspended in FACS buffer and flow cytometry performed using either a […] cytometer, followed by data analysis using FlowJo (FIG. 8).

binding result | Binder
binds | B7
binds | B8

Molecular target: T1, canine OX40L, full length membrane …
Assay: flow cytometry titration on HEK cells expressing OX40L; Kd (EC50), Prism
Procedure: as §1, with “FIG. 12.” for “FIG. 10.”, “OX40L formulated in canine IgGB Def2 and Def7 backbones. The experiment was performed using” for “OX40L on”, “(AU) values” for “(AU)”
as §2

Kd [nM] | Binder
74.6 | B9
74.2 | B10
45.4 | B11
58.1 | B12

Molecular target: T1, canine OX40L, full length membrane …
Assay: flow cytometry titration on MEF cells expressing OX40L; Kd (EC50) from GeoMean vs concentration, Prism four parameter fit
Procedure: FIG. 11. Affinity determination for antibodies that bind OX40L on MEF cells expressing OX40L. Graphs are generated by plotting GeoMean arbitrary units (AU) against Log₁₀ [concentration]. Kd (EC₅₀) was calculated using Prism.
as §2

Kd [nM] | Binder
108 | B1
10.7 | B2
22.7 | B3
38.3 | B5
0.71 | B6
